Assay results from the DeepSol protein solubility set.

Assay: soluble on expression in E. coli; label from the status in PepcDB or PDB records

Sequence | soluble on expression in E. coli
MATWTVHLEGGPRRVNHASIAVGSRIYSFGGYCSGEVTDAKDPLDVHVLNTENYRWIKMNPGYVYNNRIITKATIESPYSDSDKMFGAVPYQRYGHTVVEYQGKAYVWGGRNDDYGACNLLHEYDPEYNVWKKVEIEGFVPPSRDGHTAVVWNNQMFVFGGYEEDAQRFSQETYVFDFATSTWREMHTKNDPPRWRDFHTASVIDGMMYIFGGRSDESGQVGDEHLFHTIHDQYDDTLMALNLATGAWTRTKVPENTMKPGGRRSHSTWVYDGKMYMFGGYLGTINVHYNELYCFDPKTSMWSVISVRGTYPSARRRHCSVVSNGKVYLFGGTMPLPCHPLSTTNYNGMISPSGLADLSDLHVLDFAPSLKTLAMQSVLNELKVPSKGMFETLQNELAADIRFEMYCQVMPNVVSNGGSPRNDQAG | not soluble
MASQTQGIQQLLAAEKRAAEKINEARKRKLQRTKQAKQEAQAEVEKYKQQREAEFKAFEQQYLGTKEDIESKIRRDTEDQISGMKQSVAGNKQAVIVRLLQLVCDIKPELHHNLTLQKKLHGQFAA | not soluble
MICCLGPRGSYSEKAAVTFSKAINDSEIQFEDSIYNVFKAVETNPEFFGVVPSENSIGGSVSITQDLLLEFPVKILGEVDISINHCLLGYDIKKVTEVLAHPQALAQCGHYITKNNWNITPVDSNAKAAKIVSEEKDEKLAAICGVENAEIYGLNVLDEYIQDFKNNTTRFFLICNKNK | not soluble
MTDVKNDVNVSSVVDADGLIEGNYDQVVESFDDMELKEELLRGIYGFGFEKPSAIQKRAIVPCTTGKDVIAQAQSGTGKTATFSVSILQRIDHEDPHVQALVMAPTRELAQQIQKVMSALGEYLNVNILPCIGGTSVRDDQRKLEAGIHVVVGTPGRVGDMINRNALDTSRIKMFVLDEADEMLSRGFKDQIYEVFRSMPQDVQVVLLSATMPSEVLDVTNRFMRNPIRILVKKDELTLEGIRQFYINVQKDEWKFDCLCDLYNVVNVTQAVIFCNTRRKVDTLTEKMTENQFTVSCLHGDMDQAERDTIMREFRSGSSRVLITTDILARGIDVQQVSLVINYDLPSNRENYIHRIGRSGRFGRKGVAINFVTENDARQLKEIESYYTTQIEEMPESIADLI | not soluble
GPGSMGRNKKSKATAHAQACSDGEREEEHGAVPTTTLPARAEGCEEENGASAAAADGAQGTPDHHSGRCSERGRDSDDDAPKTKKEYRGNRLKKLEVQRKKGKGKGANEDDKAEEAAREGDAHEEPLVVTRQRAVEVLYCPICTFPAEMCEFSGIVEKCRPWLLEHAADLADAEERGRKRRILTEKDRLEAMLEGRGVKKALERIVVLEVEKRTGRRMITSVFGMDLFGFNLKDVSRDWRKRFSCGAGVRAAEEGKHQDCIDIQGNVVDQLADMLITKYKIPKESVYLMEGKKKVPYPY | not soluble
MAHHHHHHMGDNILDQKVDLFGGKGIFTKELDEELIKGKVHICVHSLKDVPMELPEQVQLSCFLKRDTINDAFLSVKYGTLEDMNKMKMANKMEEGSYQPKGMSQRVINQNVKRDNYEGDHYDNFIPTIGTSSLRRSSQIKYKYKNVAVKNMRGNINTRIAKLCNGQYDAIIIAKCGLERLTTKKGIRNIIGGKNKVTPKNFLINYNNTEINLTSLHIQQINKRTIYPALCQGIIAVSSHKSDKYISDVLKNINDEKAQIMANIERSFLYQIEGNCMMPIGGYAKIVNGEIVFNAVINDIHGREKYHVREVGKVESYNEIAVMAATKMKEKIGTHRFNKIREEAAQYYA | not soluble
MGSDKIHHHHHHMRDNTHSLEGVARLLLRSEAVASSRIEGIAPNSDKVAMAILARESDSEIRGFKESATAVARNVAILDTINADLAYKDELVLDDIVAMQTALVHAQFETIHPFPDGNGRVGRAMIHALLQRRGLTDAAVLPVSMVLATLGDRYVDGLTKFREGDVLAWISFFVEAAQVATTKAAELADSVAALEAEWMDKVNHHRTAQEASCHAFGHGAHREVRTGDFIDKHGPRCSRFTHRRWHST | not soluble
SLERSQVFNILRMMPKGAALHLHDIGIVTMDWLVRNVTYRPHCHICFTPRGIMQFRFAHPTPRPSEKCSKWILLEDYRKRVQNVTEFDDSLLRNFTLVTQHPEVIYTNQNVVWSKFETIFFTISGLIHYAPVFRDYVFRSMQEFYEDNVLYMEIRARLLPVYELSGEHHDEEWSVKTYQEVAQKFVETHPEFIGIKIIYSDHRSKDVAVIAESIRMAMGLRIKFPTVVAGFDLVGHEDTGHSLHDYKEALMIPAKDGVKLPYFFHAGETDWQGTSIDRNILDALMLNTTRIGHGFALSKHPAVRTYSWKKDIPIEVCPISNQVLKLVSDLRNHPVATLMATGHPMVISSDDPAMFGAKGLSYDFYEVFMGIGGMKADLRTLKQLAMNSIKYSTLLESEKNTFMEIWKKRWDKFIADVATK | soluble
MRPDDKYHEKQAQVEATKLKQKVEALSPGDRQQIYEKGLELRSQQSKPQDASCLPALKVSDIEPTIPVTELDVVLTAGDIPVQYCAQPTNGMVYFRAFSSLNTLPEELRPYVPLFCSVLTKLGCGLLDYREQAQQIELKTGGMSASPHVLPDDSHMDTYEQGVLFSSLCLDRNLPDMMQLWSEIFNNPCFEEEEHFKVLVKMTAQELANGIPDSGHLYASIRAGRTLTPAGDLQETFSGMDQVRLMKRIAEMTDIKPILRKLPRIKKHLLNGDNMRCSVNATPQQMPQTEKAVEDFLRSIGRSKKERRPVRPHTVEKPVPSSSGGDAHVPHGSQVIRKLVMEPTFKPWQMKTHFLMPFPVNYVGECIRTVPYTDPDHASLKILARLMTAKFLHTEIREKGGAYGGGAKLSHNGIFTLYSYRDPNTIETLQSFGKAVDWAKSGKFTQQDIDEAKLSVFSTVDAPVAPSDKGMDHFLYGLSDEMKQAHREQLFAVSHDKLLAVSDRYLGTGKSTHGLAILGPENPKIAKDPSWIIR | not soluble
MKIAIVGTGISGLTCGYYLHQQHDITLFEANDYIGGHTATVDVRVGIEDYAIDTGFIVYNDRTYPNFIKMMNEIGVEGIPTQMSFSVRNDGNGLEYNGHTLTTLFAQKRNWLNPKFYRFVLEILRFNKLAKASATEQISSSQSLGAFLDEHQFSDFFSDNYILPMGAAIWSSSLADMRAFPLMFFLRFFLNHGLLDVTNRPQWYVIKGGSRAYIPPLTQGFADKIRLNSPVEKVVRSEQGVAIYANGQCEWFDEVIFACHSDQALAMLSDASSCENDILSNMAYQANDVVLHTDTSVLPKRKSAWASWNYLLEGGEEEQQRLPSLTYNMNILQHIDSSHTFCVTLNRTEDIDENKILRQFTYHHPVFTTESIAAQQRKEEIQGAQHTWFCGAYWYNGFHEDGVRSALDVVKGIAAKHNEKNDTLYEQGAALEHHHHHH | soluble
MGSDKIHHHHHHMKVTILLPAYNAALYLRDSLDSIMRQAFKDFDVLLIDDGSMDDTSKIAIEYSNIDRRIKYYKNEKNIGLIKTLNKGLSLAKGEYIVRMDADDIMFDDRLYKQVKYMDSNPECFVCGGQMEYIGGLTGMAPILPQKYEDLLYLSLINCPLYHPTTIIRNSAIKQFGLKYNDSYKHAEDYKFWSDIIFSHPNSIANIKDVVLFYRISNNQITAKYSDEQDLISKIVRRENVQHVLVPYGIKLPEVVNCEIIEKVSSLIRKEHIDAAEILTLVLCMLYMSMENSYVRIKHFILSNDYSLFVKNSSRIKLGLSVLLSGIFSNRGKRFVI | not soluble
MGSDKIHHHHHHMRLDHLRLQNFRCYEDAHFDFQPGFNLVVGVNGSGKTSLLLGVAECLIPYGNAMGQGQEILSKEDVRFVIDRHEGRSRFERKFPVFIRADGDIFDLPNWRAVRLLEPWEGGVDPSSLSHLSAVLARNNAGEQIDFPVLAFYRANRRWSSARISAEFAAQQRTSRFDGYANWFDAVADLRDFESWLIARTLERLQDRLDSTPTVEREDELEWVNRAIRLAIPDAHDLRYDLRLQSLLVDMGEGNAVPFHELSDGQRSLIALIADIARRMCVLNPHIGKDVLANTGGIVIIDELDIHLHPAWQRNIAPTLKKAFPKVQFIATSHSPQVIGSLQPGEVILLKNGDSSHPRATYGLDSSTILEEVMGVPQREPEIEVLLDELFSTLENNELEKARLQLDALKKKAPDLPEFAGAEALLKRKELIGR | not soluble
MSLLNTYEPWKFAFSQEETDFNNLKEGAWGIIGVPFDSTTSYHPGSRFGPIVVREASYGFEKYNTIFNTQLDNIFYDFGDVNVVFGNCKKTCDIIEDTVNELSDLKIKPLTIGGEHSLTIGVLNSLTKKYDDLTVVHLDAHRDLADTFIGELYSHASVMKRVHEMGVKELVQIGIRSASKEEEDFVKNQSNITTFKNNDVFHHLDNIEYYLSIIDTPIYLSIDMDVFDPSIAPTVGNPTPNGIAYGHIEAMLQTLSLKNVVGMDVVETAGDRLGDITAVSASKIIYDFLSLLEGHHHHHH | soluble
